± gives the standard error. Variants at the floor of the assay were thinned out.
B1: glmS ribozyme (parent)
chain: AUAAAAGCGCCAGAACUACAGAAAUGUAGUUGACGAGGAGGAGGUUUAUCGAAUUUUCGGCGGAUGCCUCCAAA

Key:
Conditions in all cases: with glucosamine-6-phosphate
glucosamine-6-phosphate [1] = variants of: B1; test: self-cleavage kobs at 40 uM GlcN6P; higher = faster cleavage; RNA array
Outline: (§1)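 Weighted Michaelis–Menten fits across concentrations supplied kcat and KM, based on kobs from one- or two-exponential decay fits to normalised per-tile medians. The data came from barcoded ribozyme variants transcribed in situ by E. coli RNA polymerase on sequenced MiSeq chips and tracked at 37 °C by a hybridised Cy3 probe. Glucosamine-6-phosphate (40 μM to 10 mM) in HEPES/KCl/Mg(OAc)2 buffer was flowed in.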

glucosamine-6-phosphate [2] = variants of: B1; test: self-cleavage kobs at 160 uM GlcN6P; higher = faster cleavage; RNA array
Outline: as §1

glucosamine-6-phosphate [3] = variants of: B1; test: self-cleavage kobs at 640 uM GlcN6P; higher = faster cleavage; RNA array
Outline: as §1

glucosamine-6-phosphate [4] = variants of: B1; test: self-cleavage kobs at 2500 uM GlcN6P; higher = faster cleavage; RNA array
Outline: as §1

glucosamine-6-phosphate [5] = variants of: B1; test: self-cleavage kobs at 10000 uM GlcN6P; higher = faster cleavage; RNA array
Outline: as §1

Row | Variant | self-cleavage kobs at 40 uM GlcN6P (glucosamine-6-phosphate [1]) [s⁻¹] | self-cleavage kobs at 160 uM GlcN6P (glucosamine-6-phosphate [2]) [s⁻¹] | self-cleavage kobs at 640 uM GlcN6P (glucosamine-6-phosphate [3]) [s⁻¹] | self-cleavage kobs at 2500 uM GlcN6P (glucosamine-6-phosphate [4]) [s⁻¹] | self-cleavage kobs at 10000 uM GlcN6P (glucosamine-6-phosphate [5]) [s⁻¹]
1 | C11A A15C C50G | 0.000118 ± 3.3e-05 | 0.000386 ± 0.00017 | 0.000113 ± 3.6e-05 | 7.75e-05 ± 3.1e-05 | 4.96e-05 ± 1.5e-05
2 | G9A G35A | < 1e-05 | < 1e-05 | < 1e-05 | – | –
3 | G9A C34G | < 1e-05 | < 1e-05 | – | < 1e-05 | < 1e-05
4 | C10A A14U C70A | 5.36e-05 ± 2.5e-05 | – | – | – | 3.49e-05 ± 1.4e-05
5 | C11A A48U A52U | < 1e-05 | – | – | – | < 1e-05
6 | C10G A33G A52U C58U A64U | < 1e-05 | – | – | – | –
7 | G9A C58U C61G | < 1e-05 | – | – | – | < 1e-05
8 | G9A A14U A39G | < 1e-05 | – | – | < 1e-05 | –
9 | C11A A36C | < 1e-05 | < 1e-05 | < 1e-05 | < 1e-05 | < 1e-05
10 | G9U C10G A48C A52G | < 1e-05 | – | – | – | –
11 | C11A A48C U55C C61A | < 1e-05 | – | – | – | –
12 | G9U U45G C50G | < 1e-05 | < 1e-05 | < 1e-05 | – | < 1e-05
13 | G9A C61A | < 1e-05 | < 1e-05 | < 1e-05 | < 1e-05 | < 1e-05
14 | C10G C16G C34U G43C A52C U55C | < 1e-05 | – | – | – | < 1e-05
15 | G9U A36G A42U G44U | < 1e-05 | – | < 1e-05 | < 1e-05 | –
16 | C10U G41U U56C C70U | < 1e-05 | – | – | – | –
17 | C10A U45G A53G | < 1e-05 | – | – | – | –
18 | G9C A53C | < 1e-05 | < 1e-05 | < 1e-05 | – | < 1e-05
19 | G9C A53U | < 1e-05 | < 1e-05 | < 1e-05 | < 1e-05 | < 1e-05
20 | C10A G62U | < 1e-05 | < 1e-05 | – | – | < 1e-05
21 | C10U G35U C67U | < 1e-05 | – | – | – | –
22 | C10U C34G G41U A52U C58A G66A C71A | < 1e-05 | – | – | – | –
23 | G9U A14G G59C C68U | < 1e-05 | – | – | – | < 1e-05
24 | G9A U56G | < 1e-05 | < 1e-05 | – | – | –
25 | C10U C58A C68A | < 1e-05 | – | – | – | < 1e-05

Source: the supplement of paper PMC7125110
